Measured values published in paper PMC11098746 (2024).
No end group written: not given here.

B1: ADP341 (protein)
chain: MEAAVAAPRPRLLLLVLAAAAAAAAALLPGATALQCFCHLCTKDNFTCVTDGLCFVSVTETTDKVIHNSMCIAEIDLIPRDRPFVCAPSSKTGSVTTTYCCNQDHCNKIELPTTVKSSPGLGP
modifications: bait human Fc-tagged dimer
B2: ADP146 (protein)
chain: MVAWRSAFLVCLAFSLATLVQRGSGDFDDFNLEDAVKETSSVKQPWDHTTTTTTNRPGTTRAPAKPPGSGLDLADALDDQDDGRRKPGIGGRERWNHVTTTTKRPVTTRAPANTLGNDFDLADALDDRNDRDDGRRKPIAGGGGFSDKDLEDIVGGGEYKPDKGKGDGRYGSNDDPGSGMVAEP
modifications: bait human Fc-tagged dimer
B3: ADP279 (protein)
chain: RMAHKFITGKLVEDERSDREETESSEGEEAAAGGGAKSRPLANGHPILNNNHRKND
modifications: also: human Fc-tagged dimer
B4: ADP325 (protein)
chain: MAAAQEADGARSAVVAAGGGSSGQVTSNGSIGRDPPAETQPQNPPAQPAPNAWQVIKGVLFRIFIIWAISSWFRRGPAPQDQAGPGGAPRVASRNLFPKDTLMNLHVYISEHEHFTDFNATSALFWEQHDLVYGDWTSGENSDGCYEHFAELDIPQSVQQNGSIYIHVYFTKSGFHPDPRQKALYRRLATVHMSRMINKYKRRRFQKTKNLLTGETEADPEMIKRAEDYGPVEVISHWHPNITINIVDDHTPWVKGSVPPPLDQYVKFDAVSGDYYPIIYFNDYWNLQKDYYPINESLASLPLRVSFCPLSLWRWQLYAAQSTKSPWNFLGDELYEQSDEEQDSVKVALLETNP
modifications: bait human Fc-tagged dimer
B5: ADP120 (protein)
chain: MAGVGAGPLRAMGRQALLLLALCATGAQGLYFHIGETEKRCFIEEIPDETMVIGNYRTQMWDKQKEVFLPSTPGLGMHVEVKDPDGKVVLSRQYGSEGRFTFTSHTPGDHQICLHSNSTRMALFAGGKLRVHLDIQVGEHANNYPEIAAKDKLTELQLRARQLLDQVEQIQKEQDYQRYREERFRLTSESTNQR
modifications: bait human Fc-tagged dimer
B6: ADP155 (protein)
chain: MAPARLFALLLFFVGGVAESIRETEVIDPQDLLEGRYFSGALPDDEDVVGPGQESDDFELSGSGDLDDLEDSMIGPEVVHPLVPLDNHIPERAGSGSQVPTEPKKLEENEVIPKRISPVEESEDVSNKVSMSSTVQGSNIFERTEV
modifications: bait human Fc-tagged dimer
B7: ADP374 (protein)
chain: MKETLYDEVLAKQKREQKLIPTKTDKKKAEKKKNKKKEIQNGNLHESDSESVPRDFKLSDALAVEDDQVAPVPLNVVETSSSVRERKKKEKKQKPVLEEQVIKESDASKIPGKKVEPVPVTKQPTPPSEAAASKKKPGQKKSKNGSDDQDKKVETLMVPSKRQEALPLHQETKQESGSGKKKASSKKQKTENVFVDEPLIHATTYIPLMDNADSSPVVDKREVIDLLKPDQVEGIQKSGTKKLKTETDKENAEVKFKDFLLSLKTMMFSEDEALCVVDLLKEKSGVIQDALKKSSKGELTTLIHQLQEKDKLLAAVKEDAAATKDRCKQLTQEMMTEKERSNVVITRMKDRIGTLEKEHNVFQNKIHVSYQETQQMQMKFQQVREQMEAEIAHLKQENGILRDAVSNTTNQLESKQSAELNKLRQDYARLVNELTEKTGKLQQEEVQKKNAEQAATQLKVQLQEAERRWEEVQSYIRKRTAEHEAAQQDLQSKFVAKENEVQSLHSKLTDTLVSKQQLEQRLMQLMESEQKRVNKEESLQMQVQDILEQNEALKAQIQQFHSQIAAQTSASVLAEELHKVIAEKDKQIKQTEDSLASERDRLTSKEEELKDIQNMNFLLKAEVQKLQALANEQAAAAHELEKMQQSVYVKDDKIRLLEEQLQHEISNKMEEFKILNDQNKALKSEVQKLQTLVSEQPNKDVVEQMEKCIQEKDEKLKTVEELLETGLIQVATKEEELNAIRTENSSLTKEVQDLKAKQNDQVSFASLVEELKKVIHEKDGKIKSVEELLEAELLKVANKEKTVQDLKQEIKALKEEIGNVQLEKAQQLSITSKVQELQNLLKGKEEQMNTMKAVLEEKEKDLANTGKWLQDLQEENESLKAHVQEVAQHNLKEASSASQFEELEIVLKEKENELKRLEAMLKERESDLSSKTQLLQDVQDENKLFKSQIEQLKQQNYQQASSFPPHEELLKVISEREKEISGLWNELDSLKDAVEHQRKKNNDLREKNWEAMEALASTEKMLQDKVNKTSKERQQQVEAVELEAKEVLKKLFPKVSVPSNLSYGEWLHGFEKKAKECMAGTSGSEEVKVLEHKLKEADEMHTLLQLECEKYKSVLAETEGILQKLQRSVEQEENKWKVKVDESHKTIKQMQSSFTSSEQELERLRSENKDIENLRREREHLEMELEKAEMERSTYVTEVRELKDLLTELQKKLDDSYSEAVRQNEELNLLKAQLNETLTKLRTEQNERQKVAGDLHKAQQSLELIQSKIVKAAGDTTVIENSDVSPETESSEKETMSVSLNQTVTQLQQLLQAVNQQLTKEKEHYQVLE
modifications: bait human Fc-tagged dimer
B8: ADP379 (protein)
chain: PCPDRPASQRMWRIDYSAAVIYDFLAVDDINGDRIQDVLFLYKNTNSSNNFSRSCVDEGFSSPCTFAAAVSGANGSTLWERPVAQDVALVECAVPQPRGSEAPSACILVGRPSSFIAVNLFTGETLWNHSSSFSGNASILSPLLQVPDVDGDGAPDLLVLTQEREEVSGHLYSGSTGHQIGLRGSLGVDGESGFLLHVTRTGAHYILFPCASSLCGCSVKGLYEKVTGSGGPFKSDPHWESMLNATTRRMLSHSSGAVRYLMHVPGNAGADVLLVGSEAFVLLDGQELTPRWTPKAAHVLRKPIFGRYKPDTLAVAVENGTGTDRQILFLDLGTGAVLCSLALPSLPGGPLSASLPTADHRSAFFFWGLHELGSTSETETGEARHSLYMFHPTLPRVLLELANVSTHIVAFDAVLFEPSRHAAYILLTGPADSEAPGLVSVIKHKVRDLVPSSRVVRLGEGGPDSDQAIRDRFSRLRYQSEA
modifications: bait human Fc-tagged dimer
B9: ADP138 (protein)
chain: MAGKSSTRAVLLLLGIQLTALWPIAAVEIYTSRVLEAVNGTDARLKCTFSSFAPVGDALTVTWNFRPLDGGPEQFVFYYHIDPFQPMSGRFKDRVSWDGNPERYDASILLWKLQFDDNGTYTCQVKNPPDVDGVIGEIRLSVVHTVRFS
modifications: bait human Fc-tagged dimer
B10: ADP261 (protein)
chain: KWETKNCSVSSTNANDITQSLTGKGNDSEEEMRFQEVFMEHMSNMEKRIQHILDMEANLMDTEHFQNFSMTTDQRFNDILLQLSTLFSSVQGHGNAIDEISKSLISLNTTLLDLQLNIENLNGKIQENTFKQQEEISKLEERVYNVSAEIMAMKEEQVHLEQEIKGEVKVLNNITNDLRLKDWEHSQTLRNITLIQGPPGPPGEKGDRGPTGESGPRGFPGPIGPPGLKGDRGAIGFPGSRGLPGYAGRPGNSGPKGQKGEKGSGNTLTPFTKVRLVGGSGPHEGRVEILHSGQWGTICDDRWEVRVGQVVCRSLGYPGVQAVHKAAHFGQGTGPIWLNEVFCFGRESSIEECKIRQWGTRACSHSEDAGVTCTL
modifications: bait human Fc-tagged dimer
B11: ADP352 (protein)
chain: MGHLSAPLHRVRVPWQGLLLTASLLTFWNPPTTAQLTTESMPFNVAEGKEVLLLVHNLPQQLFGYSWYKGERVDGNRQIVGYAIGTQQATPGPANSGRETIYPNASLLIQNVTQNDTGFYTLQVIKSDLVNEEATGQFHVYPELPKPSISSNNSNPVEDKDAVAFTCEPETQDTTYLWWINNQSLPVSPRLQLSNGNRTLTLLSVTRNDTGPYECEIQNPVSANRSDPVTLNVTYGPDTPTISPSDTYYRPGANLSLSCYAASNPPAQYSWLINGTFQQSTQELFIPNITVNNSGSYTCHANNSVTGCNRTTVKTIIVTELSPVVAKPQIKASKTTVTGDKDSVNLTCSTNDTGISIRWFFKNQSLPSSERMKLSQGNTTLSINPVKREDAGTYWCEVFNPISKNQSDPIMLNVNYNALPQENGLSPG
modifications: bait human Fc-tagged dimer
B12: ADP317 (protein)
chain: MGSWALLWPPLLFTGLLVRPPGTMAQAQYCSVNKDIFEVEENTNVTEPLVDIHVPEGQEVTLGALSTPFAFRIQGNQLFLNVTPDYEEKSLLEAQLLCQSGGTLVTQLRVFVSVLDVNDNAPEFPFKTKEIRVEEDTKVNSTVIPETQLQAEDRDKDDILFYTLQEMTAGASDYFSLVSVNRPALRLDRPLDFYERPNMTFWLLVRDTPGENVEPSHTATATLVLNVVPADLRPPWFLPCTFSDGYVCIQAQYHGAVPTGHILPSPLVLRPGPIYAEDGDRGINQPIIYSIFRGNVNGTFIIHPDSGNLTVARSVPSPMTFLLLVKGQQADLARYSVTQVTVEAVAAAGSPPRFPQRLYRGTVARGAGAGVVVKDAAAPSQPLRIQAQDPEFSDLNSAITYRITNHSHFRMEGEVVLTTTTLAQAGAFYAEVEAHNTVTSGTATTVIEIQVSEQEPPSTDVPPSPEAGGTTGPWTSTTSEVPRPPEPSQGPSTTSSGGGTGPHPPSGTTLRPPTSSTPGGPPGAENSTSHQPATPGGDTAQTPKPGTSQPMPPGVGTSTSHQPATPSGGTAQTPEPGTSQPMPPSMGTSTSHQPATPGGGTAQTPEAGTSQPMPPGMGTSTSHQPTTPGGGTAQTPEPGTSQPMPLSKSTPSSGGGPSEDKRFSVVDMA
modifications: bait human Fc-tagged dimer
B13: ADP296 (protein)
chain: MARERGALSRASRALRLAPFVYLLLIQTDPLEGVNITSPVRLIHGTVGKSALLSVQYSSTSSDRPVVKWQLKRDKPVTVVQSIGTEVIGTLRPDYRDRIRLFENGSLLLSDLQLADEGTYEVEISITDDTFTGEKTINLTVDVPISRPQVLVASTTVLELSEAFTLNCSHENGTKPSYTWLKDGKPLLNDSRMLLSPDQKVLTITRVLMEDDDLYSCMVENPISQGRSLPVKITVYRRSS
modifications: bait human Fc-tagged dimer
B14: ADP354 (protein)
chain: MGPWSRSLSALLLLLQVSSWLCQEPEPCHPGFDAESYTFTVPRRHLERGRVLGRVNFEDCTGRQRTAYFSLDTRFKVGTDGVITVKRPLRFHNPQIHFLVYAWDSTYRKFSTKVTLNTVGHHHRPPPHQASVSGIQAELLTFPNSSPGLRRQKRDWVIPPISCPENEKGPFPKNLVQIKSNKDKEGKVFYSITGQGADTPPVGVFIIERETGWLKVTEPLDRERIATYTLFSHAVSSNGNAVEDPMEILITVTDQNDNKPEFTQEVFKGSVMEGALPGTSVMEVTATDADDDVNTYNAAIAYTILSQDPELPDKNMFTINRNTGVISVVTTGLDRESFPTYTLVVQAADLQGEGLSTTATAVITVTDTNDNPPIFNPTTYKGQVPENEANVVITTLKVTDADAPNTPAWEAVYTILNDDGGQFVVTTNPVNNDGILKTAKGLDFEAKQQYILHVAVTNVVPFEVSLTTSTATVTVDVLDVNEAPIFVPPEKRVEVSEDFGVGQEITSYTAQEPDTFMEQKITYRIWRDTANWLEINPDTGAISTRAELDREDFEHVKNSTYTALIIATDNGSPVATGTGTLLLILSDVNDNAPIPEPRTIFFCERNPKPQVINIIDADLPPNTSPFTAELTHGASANWTIQYNDPTQESIILKPKMALEVGDYKINLKLMDNQNKDQVTTLEVSVCDCEGAAGVCRKAQPVEAGLQIP
modifications: bait human Fc-tagged dimer

target: Circumsporozoite protein (CSP) (Plasmodium falciparum (isolate 3D7), UniProt Q7K740); test: AVEXIS screen signal:noise (double-corrected)
Sequence (Q7K740 19-374): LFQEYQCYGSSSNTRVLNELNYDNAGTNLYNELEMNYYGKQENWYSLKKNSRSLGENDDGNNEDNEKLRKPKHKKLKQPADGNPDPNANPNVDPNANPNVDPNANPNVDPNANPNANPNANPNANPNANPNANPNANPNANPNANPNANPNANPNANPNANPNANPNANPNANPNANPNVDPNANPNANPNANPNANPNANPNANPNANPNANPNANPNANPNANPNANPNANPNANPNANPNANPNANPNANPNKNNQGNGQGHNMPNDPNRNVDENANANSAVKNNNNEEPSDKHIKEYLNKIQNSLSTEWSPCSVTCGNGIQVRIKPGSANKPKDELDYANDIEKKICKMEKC

Binder | binding score
B1 | 1.43
B2 | 1.36
B3 | 1.03
B4 | 1.73
B5 | 0.957
B6 | 0.582
B7 | 0.547
B8 | 2.44
B9 | 0.831
B10 | 0.837
B11 | 1.31
B12 | 2.47
B13 | 0.997
B14 | 0.796
